One molecule from PMC8096068, “The canonical α-SNAP is essential for gametophytic development in Arabidopsis” (PLoS Genetics, 2021) can be followed below.

This experiment addresses T1, His-NSF (Arabidopsis, UniProt Q9M0Y8 1-742).
T1 construct: Arabidopsis thaliana N-ethylmaleimide-sensitive factor (NSF), At4g04910; also called NSF-His; his-tagged NSF
T1 sequence (looked up): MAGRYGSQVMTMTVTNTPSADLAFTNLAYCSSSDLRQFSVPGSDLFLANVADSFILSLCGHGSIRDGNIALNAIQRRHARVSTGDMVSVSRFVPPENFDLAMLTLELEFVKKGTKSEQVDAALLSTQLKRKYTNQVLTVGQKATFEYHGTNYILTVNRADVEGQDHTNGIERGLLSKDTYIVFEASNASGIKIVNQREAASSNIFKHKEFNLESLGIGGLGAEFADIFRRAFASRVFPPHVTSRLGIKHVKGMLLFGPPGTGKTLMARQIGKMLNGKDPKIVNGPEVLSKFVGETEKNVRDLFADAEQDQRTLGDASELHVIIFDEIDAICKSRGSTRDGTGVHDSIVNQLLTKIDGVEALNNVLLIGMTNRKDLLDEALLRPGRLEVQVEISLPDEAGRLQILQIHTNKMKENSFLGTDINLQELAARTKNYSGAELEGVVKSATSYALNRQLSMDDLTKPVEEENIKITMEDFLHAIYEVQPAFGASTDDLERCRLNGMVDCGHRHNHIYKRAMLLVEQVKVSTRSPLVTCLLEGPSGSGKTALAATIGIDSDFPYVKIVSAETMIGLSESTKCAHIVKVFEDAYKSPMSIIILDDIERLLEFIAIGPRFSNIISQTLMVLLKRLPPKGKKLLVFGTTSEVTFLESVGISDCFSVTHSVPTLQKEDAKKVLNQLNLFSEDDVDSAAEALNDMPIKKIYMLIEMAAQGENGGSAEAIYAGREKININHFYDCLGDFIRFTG
Nature of the experiment: pull-down; in vitro pull-down; NSF-His used to pull down ASNAP.1-GST or ASNAP.2-GST; recombinant proteins from E. coli, affinity-purified. The following applies: both partners purified.

B1: GST-ASNAP.1 (natural protein, Arabidopsis, UniProt Q9SPE6 1-289, looked up)
chain: MGDHLVRAEEFEKKAEKKLNGWGIFGSKYEDAADLLEKAANSYKLAKSWDQAGKAYLKLADCHLKSDSKHDAANAYAEAAKCYKKVDTNEAASCLERAVNIFCEIGRLNMAARYYKEIAEYYESDQKFEQAIAYFEKAAEFFQNEEVTTSANQCNLKVAQYAAQLEQYEKAIKIYEDIARHSLNNNLLKYGVKGHLLTAGMCHLCKADVVSITNALEKYQDLDPTFTGTRECKFLADLASAIDEEDIAKFTDVVKEFDSMTPLDSWKTTMLLRVKEKLKAKELEEDDLT
notes: Arabidopsis thaliana alpha-soluble NSF attachment protein ASNAP, splicing variant ASNAP.1 (At3g56190.1); The only vector named for the pull-down constructs is pET-32a, which is not a GST vector; also called ASNAP.1-GST; α-SNAP.1
With B1, the binding result is listed as “binds”.
